# B1: RNF128-E2 nanobody (VHH)
# VHH: QVQLQESGGGLVQAGGSLRLSCAASGSISGGKGMGWYRQAPGKEREFVAAIGSGAITYYADSVKGRFTISRDNAKNTVYLQMNSLKPEDTAVYYCAVYTTALDEYPYWGQGTQVTVSS
# Biological target: human RNF128 (GRAIL) extracellular domain (human) (UniProt Q8TEB7)
# Assay: SPR; Biacore T100; biotinylated ECD (ligand) captured on a streptavidin (SA) series S chip, ~100-200 RU; non-biotinylated VHH as analyte in HBS-P+ buffer, twofold dilutions from 500 nM (RNF128 E2, RNF130 D1) or 1000 nM (RNF43 C8); injection 60 s at 30 ul/min, dissociation 240 s; regeneration 1 x 10 sec glycine pH 2.5; 1:1 Langmuir model or equilibrium
# Chain of human RNF128 (GRAIL) extracellular domain (human) (Q8TEB7 39-428): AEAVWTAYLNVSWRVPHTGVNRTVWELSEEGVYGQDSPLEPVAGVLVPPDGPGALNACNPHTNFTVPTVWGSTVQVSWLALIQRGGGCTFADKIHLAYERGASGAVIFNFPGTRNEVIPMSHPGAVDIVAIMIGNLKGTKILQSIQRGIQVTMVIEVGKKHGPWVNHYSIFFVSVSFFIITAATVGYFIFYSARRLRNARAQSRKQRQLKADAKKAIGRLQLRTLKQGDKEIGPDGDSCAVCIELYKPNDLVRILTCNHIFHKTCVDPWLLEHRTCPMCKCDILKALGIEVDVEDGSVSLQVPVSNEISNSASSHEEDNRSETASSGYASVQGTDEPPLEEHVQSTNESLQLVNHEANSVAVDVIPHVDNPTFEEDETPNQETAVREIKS
binder,measurement,value
B1,Kd,10 nM

# Source: publication PMC10127277
